In patent US20100167997A1, “METHOD FOR STIMULATION COLLAGEN SYNTHESIS AND/OR KGF EXPRESSION” (ATYR PHARMA, INC., priority 2005, published 2010):

Key:
collagen [1] = experiment: RT-PCR analysis of collagen transcript in foreskin fibroblast cells; type: cell-based; conditions: for collagen synthesis (RT-PCR), deletion fragments, compared with C-terminal fragment SEQ ID NO: 15: 100 nM for 2 hours and 6 hours, FIG. 6; for synthesis of collagen (RT-PCR), AIMP1 fragments: 100 nM, 0, 1, 2, 4 and 6 hours, FIG. 5
Method: (§1) In order to measure the collagen transcript RNA induced by the AIMP1, foreskin fibroblast cells (5×10^4 cells/well; obtained from MTT; accession number: MC1232) were cultured in 10% serum-containing DMEM medium on a 6-well plate for 12 hours and then cultured in serum-free medium for about 3 hours. Next, the cultured cells were treated with the AIMP1 (SEQ ID NO: 1) at varying AIMP1 concentrations of 0, 20, 50, 100 and 200 nM for 6 hours (RT-PCR) or 12 hours (Western blot).
The cells treated with the AIMP1 at varying concentrations in Example <1-1> were collected and dissolved in TRIzol (invitrogen). 10% by weight of chloroform was added to the cell lysate, and mixed well. The mixture was centrifuged at 12,000 g for 15 minutes and the supernatant was collected. Ethanol was added to the collected supernatant to a final concentration of 70%. Then, the supernant was centrifuged at 26,000 g for 5 minutes and the precipitant was collected. The precipitant was dried and dissolved in sterilized distilled water, and the total RNA was extracted. 3 μg of the total RNA was used to prepare cDNA. Then, the cDNA was amplified by PCR using collagen-specific primers (SEQ ID NO: 4 and SEQ ID NO: 5). At this time, for use as a control group, the cDNA was subjected to PCR using GADPH-specific primers (SEQ ID NO: 6 and SEQ ID NO: 7). The PCR reaction consisted of: pre-denaturation of the template DNA at 95° C. for 5 min, followed by 25 cycles of 1 min at 95° C., 1 min at 52° C. and 1 min at 72° C., and then a final extension for 5 min at 72° C.
(§2) Foreskin fibroblast cells (5×10^4 cells/well) were cultured in 10% serum-containing DMEM medium on a 6-well plate for 12 hours, and then, cultured in serum-free medium for about 3 hours. Next, the cultured cells were treated with 100 nM of the AIMP1 at various time intervals (0, 2, 4, 6, 12 and 24 hours).
(§3) Foreskin fibroblast cells (5×10^4 cells/well) were cultured in 10% serum-containing DMEM medium on a 6-well plate about 12 hours, and then, cultured in serum-free medium for about 3 hours. Then, the cultured cells were treated with 100 nM of the N-terminal and C-terminal fragments of the AIMP1 prepared in Reference Example 1, at various time intervals of 0, 1, 2, 4, and 6 hours. Then, RT-PCR was performed in the same manner as in Example <1-2> using each of collagen-specific primers (SEQ ID NO: 4 and SEQ ID NO: 5), KGF-specific primers (SEQ ID NO: 8 and SEQ ID NO: 9) and GADPH-specific primers (SEQ ID NO: 6 and SEQ ID NO: 7).
(§4) Foreskin fibroblast cells (5×10^4 cells/well) were cultured in 10% serum-containing DMEM medium on a 6-well plate for 12 hours and then cultured in serum-free medium for about 3 hours. Next, the cultured cells were treated with each of the N-terminal fragments (SEQ ID NOS: 12, 13 and 14) and C-terminal fragment (SEQ ID NO: 15) of AIMP1 prepared in Reference Example 2 at an concentration of 100 nM for 2 hours and 6 hours, respectively. The treated cells were subjected to RT-PCR using collagen-specific primers (SEQ ID NOS: 4 and 5), KGF-specific primers (SEQ ID NOS: 8 and 9) and GADPH-specific primers (SEQ ID NOS: 6 and 7) in the same manner as in Example <1-2>.

collagen [2] = experiment: Western blot analysis of collagen (anti-collagen I antibody) in foreskin fibroblast cells; type: cell-based; conditions: 200 nM for 12 hours, FIG. 7
Method: as §1
The cells treated with the AIMP1 at varying AIMP1 concentrations in Example <1-1> were collected and lysed in a cell lysis buffer (50 mM HEPES, pH 7.5, 150 mM NaCl, 10% glycerol, 5 mM EGTA, 1 mM sodium orthovanadate, 10 mM NaF, 12 mM b-glycerophosphate, 1 mM DTT, 1 mM PMSF, […] aprotinin, and 1% NP40). Lysed cells were centrifuged at 26,000 g for 15 minutes and the cell extract was isolated. 30 μg of the cell extract was separated by 8% SDS-PAGE and immunoblotted with an anti-collagen I antibody (Abcam) according to any conventional method known in the art. As a control group, an anti-tubulin antibody (Sigma) was used.
as §2
Foreskin fibroblast cells (5×10^5 cells/well) were cultured in 10% serum-containing DMEM medium on a 6-well plate for 48 hours and then cultured in serum-free medium for about 3 hours. Next, the cultured cells were treated with each of the AIMP1 (SEQ ID NO: 1) and the AIMP1 N-terminal fragments (SEQ ID NOS: 2 and 12) at a concentration of 200 nM for 12 hours. As a control group, cells without treatment were used.
The cells treated with each of the AIMP1 and its N-terminal fragments and the control cells were collected at the indicated time and subjected to Western blot analysis in the same manner as in Example <1-3>.

KGF [3] = experiment: RT-PCR analysis of KGF expression in foreskin fibroblast cells; type: cell-based; conditions: for KGF synthesis (RT-PCR), deletion fragments, compared with C-terminal fragment SEQ ID NO: 15: 100 nM for 2 hours and 6 hours, FIG. 6; for synthesis of KGF (RT-PCR), AIMP1 fragments: 100 nM, 0, 1, 2, 4 and 6 hours, FIG. 5
Method: From foreskin fibroblast cells treated with 100 nM of the AIMP1 for 2 hours, the total RNA was extracted in the same manner as described in Example <1-2>. Then, the extract was amplified by RT-PCR using KGF-specific primers (SEQ ID NO: 8 and SEQ ID NO: 9). The control groups were amplified using cyclin D-specific primers (SEQ ID NO: 10 and SEQ ID NO: 11) and GADPH-specific primers (SEQ ID NO: 6 and SEQ ID NO: 7), respectively. The PCR reaction consisted of: predenaturation of the template DNA at 95° C. for 5 min, followed by 25 cycles of 1 min at 95° C., 1 min at 52° C. and 1 min at 72° C., and then, a final extension for 5 min at 72° C.
as §3, §4

KGF [4] = experiment: Activity to stimulate KGF expression (data not shown)
collagen [5] = experiment: Activity to stimulate collagen synthesis (data not shown)

**Q.** What does the source list for “SEQ ID NO: 12: N-terminal deletion fragment of AIMP1, amino acids 6-46 (AVLKRLEQKGAEADQIIEYLKQQVSLLKEKAILQATLREEK; PEPTIDE (1)..(41) AIMP1-(6-46); listed as Homo sapiens)”?
**A.** collagen synthesis (RT-PCR), deletion fragments, compared with C-terminal fragment SEQ ID NO: 15 (collagen [1]): more stimulated; synthesis of collagen, protein levels (Western blot), compared with cells without treatment (collagen [2]): more stimulated; KGF synthesis (RT-PCR), deletion fragments, compared with C-terminal fragment SEQ ID NO: 15 (KGF [3]): more stimulated

**Q.** Which “collagen synthesis (RT-PCR), deletion fragments, compared with C-terminal fragment SEQ ID NO: 15” value (collagen [1]) does the source give for “SEQ ID NO: 13: N-terminal deletion fragment of AIMP1, amino acids 1-46 (MANNDAVLKRLEQKGAEADQIIEYLKQQVSLLKEKAILQATLREEK; PEPTIDE (1)..(46) AIMP1-(1-46); listed as Homo sapiens)” here?
**A.** The value was “more stimulated”.

**Q.** And the “KGF synthesis (RT-PCR), deletion fragments, compared with C-terminal fragment SEQ ID NO: 15” value (KGF [3])?
**A.** The value was “more stimulated”.

**Q.** What does the source list for “SEQ ID NO: 14: N-terminal deletion fragment of AIMP1, amino acids 1-53 (MANNDAVLKRLEQKGAEADQIIEYLKQQVSLLKEKAILQATLREEKKLRVENA; PEPTIDE (1)..(53) AIMP1-(1-53); listed as Homo sapiens)”?
**A.** collagen synthesis (RT-PCR), deletion fragments, compared with C-terminal fragment SEQ ID NO: 15 (collagen [1]): more stimulated; KGF synthesis (RT-PCR), deletion fragments, compared with C-terminal fragment SEQ ID NO: 15 (KGF [3]): more stimulated

B1: SEQ ID NO: 2: N-terminal fragment of AIMP1, amino acids 1-147 (protein, listed as Homo sapiens)
chain: MANNDAVLKRLEQKGAEADQIIEYLKQQVSLLKEKAILQATLREEKKLRVENAKLKKEIEELKQELIQAEIQNGVKQIAFPSGTPLHANSMVSENVIQSTAVTTVSSGTKEQIKGGTGDEKKAKEKIEKKGEKKEKKQQSIAGSADS
modifications: PEPTIDE (1)..(147) AIMP1-(1-147)
**Q.** How did the “synthesis of collagen (RT-PCR), AIMP1 fragments” value (collagen [1]) turn out when B1 was run?
**A.** The value was “stimulated”.

**Q.** What about the “synthesis of collagen, protein levels (Western blot), compared with cells without treatment” value (collagen [2]) of the same molecule?
**A.** The value was “more stimulated”.

**Q.** What about the “synthesis of KGF (RT-PCR), AIMP1 fragments” value (KGF [3]) of the same molecule?
**A.** Its value is “stimulated”.

B2: SEQ ID NO: 28: fragment consisting of amino acids 6-192 of the AIMP1 (protein, listed as Homo sapiens)
chain: AVLKRLEQKGAEADQIIEYLKQQVSLLKEKAILQATLREEKKLRVENAKLKKEIEELKQELIQAEIQNGVKQIAFPSGTPLHANSMVSENVIQSTAVTTVSSGTKEQIKGGTGDEKKAKEKIEKKGEKKEKKQQSIAGSADSKPIDVSRLDLRIGCIITARKHPDADSLYVEEVDVGEIAPRTVVSG
modifications: PEPTIDE (1)..(187) AIMP1-(6-192)
notes: fragment consisting of amino acids 6-192 of the AIMP1
**Q.** What does the source list for B2?
**A.** activity to stimulate KGF expression (KGF [4]): have the activity to stimulate collagen synthesis and KGF expression; activity to stimulate collagen synthesis (collagen [5]): have the activity to stimulate collagen synthesis

B3: C-terminal fragment: C-terminal fragment of AIMP1, amino acids 148-312 (protein, listed as Homo sapiens)
chain: KPIDVSRLDLRIGCIITARKHPDADSLYVEEVDVGEIAPRTVVSGLVNHVPLEQMQNRMVILLCNLKPAKMRGVLSQAMVMCASSPEKIEILAPPNGSVPGDRITFDAFPGEPDKELNPKKKIWEQIQPDLHTNDECVATYKGVPFEVKGKGVCRAQTMSNSGIK
modifications: PEPTIDE (1)..(165) AIMP1-(148-312)
**Q.** B3 was tested. Which “synthesis of collagen (RT-PCR), AIMP1 fragments” value (collagen [1]) did it give?
**A.** Its value is “no significant effect”.

**Q.** And the “synthesis of KGF (RT-PCR), AIMP1 fragments” value (KGF [3])?
**A.** Its value is “no significant effect”.

B4: SEQ ID NO: 27: fragment consisting of amino acids 1-192 of the AIMP1 (protein, listed as Homo sapiens)
chain: MANNDAVLKRLEQKGAEADQIIEYLKQQVSLLKEKAILQATLREEKKLRVENAKLKKEIEELKQELIQAEIQNGVKQIAFPSGTPLHANSMVSENVIQSTAVTTVSSGTKEQIKGGTGDEKKAKEKIEKKGEKKEKKQQSIAGSADSKPIDVSRLDLRIGCIITARKHPDADSLYVEEVDVGEIAPRTVVSG
modifications: PEPTIDE (1)..(192) AIMP1-(1-192)
notes: fragment consisting of amino acids 1-192 of the AIMP1
**Q.** For B4, which “activity to stimulate KGF expression” value (KGF [4]) is on record?
**A.** The value was “have the activity to stimulate collagen synthesis and KGF expression”.

**Q.** What about the “activity to stimulate collagen synthesis” value (collagen [5]) of the same molecule?
**A.** The value was “have the activity to stimulate collagen synthesis”.
